Laboratory results as given in US11649285B2.

Target: human VISTA, native (on anti-CD3-activated human T cells and PBMCs) (human (homo sapiens))

division of CFSE-labeled human CD3+ T cells with plate-bound anti-CD3 and control rhIgG1Fc, flow cytometry (% CD3+ T cells dividing (72 hours)): > 40
Substance: control recombinant human IgG1 Fc
